Laboratory results as given in a protein production outcome set (Wang et al. 2014).

Experiment: label from the status in PepcDB records

Row | Sequence | protein production
1 | MTIFVLSSLLAILLAVAIYNSEPSSYAHRSPTYGIGYVFVYIIAAFLFSFVIIYLGRKKKLRIFKVIYSIVVAYVIFYVFLILLSIFLYNVYAIFTVSIVVAIVFFYMILFRNEWYVTDLAGFFLSVGISSIWGITFGVWAAVAFLIAFEIYDYIAVYKTRHMISLARYAVDSDLPMLFVLPENSGFTMRGLSFDNRGDGNVLMIGFGDIALPSIMVVSSAIYGISHILFFTVLPLAGGLIGMAVLYFWNRDRPAPGLPYINTGTIAGFLIAFLAFRVF | failed
2 | MNRQLLLDVLPAPAPALNNYIAGPNGQALAAAHALTAGRAIYLWGPAGCGRTHLLRGLSARPEAIYIDAARAAQSLRELAEADSTAPMPRLVAVDDVHRMDDARQAGLFALYNRWRESAATGRAFALAVSGDRAPMSLPLREDLRTRLGWDLVFRLDPLSDADKLAALTAQAAERGLQLAPEVINWMLTHHERDIRKLAALLDALDRYSLATGRPITIPLLRAMLADPHSQATLEHHHHHH | not failed
3 | MMWNLIKNEFIKLRYKRKYIICTIVFALICIGFCAVYVKMQKASTPDAAIQYYKDAKSSLQSKEKNIKDATLKQQYDQQISQLDEQIKQYQQSKNQGNSNWKKQLKNTIDSLKDEKNQAADITENTAKESYNKQIVFYQYLLNHNIKPQDNNSLSTFQLLQSLLKLIGYILIPIIIAIFSADIVSGEYTPPTIKVLLSKPASRAKILASKFIASAISCIAIILLIELITYLITGIAYGFDNPSYPVLVGTKYMNSGIKLTQDSTGLIPILGSSYVIPLWQFLIEMFLFQILFIIGCCSFFLLLSVVLRSSVLSMTLSIMIVIALNIISQISALHVIMPFLFTNYGSPYDILTNSIPSTSGLTFTTAIFGVIYLIIFTILCYGIANYSFKKKDMTV | failed
4 | MRAPLPELPAGTRFGAWAIDRLIGAGGMGQVYLGHRADGAYEREVAIKLVAADALDAQGRALFEFECRLLAQMVHPAIAQIHDVGTDAHGQPYLVMEYLRGEPITWWCDEHRLSLHARVLLMLRVGEAVQHAHQKGVIHRDLKPSNVLVSEIDGRPMPGVIDFGIAVDATNPGMTYAHDRGTPGYMSPEQARGAQDVDARSDIYALGAMFYELSCGLAPVAGRDGVPQPPSQRVAAVPADARARICAARATTYQKLHEQLRDGLDAIVLRALEPQPGARYASVSALLDDLHRWLDGYPPRALQASRWLRLRKFTQRHRSGVAAAGLAAIAVVAGLGATLWSLQQAARDAQRAQVTGDFMSSVLSSVDPGVARDLDKTLMLRVMQQASQRAARELADQPDARTQVELTLGRTLIALANFPQAVEHLRIAQTLAQQTAGAGSLPALKAASMLGQALTGDGKPGDAERVLRQGIAQAARGDAQQQAMGNELRAWLAWALREQGRMRDALAESRHAYVAALANASSSADQRIDAGNSYAAMLADNGQLVPAIALQRSLLRERMAMRGPEHPLVVSMRNSLAVFLLMQRDFAGAEAELVPLLRVTRTLYGESAADTLMIEGNLAGALRQQGKVAEAGPYYRRALERARAAFGNDAPVTIAYRSNHAFWLLDDGQVDASLAEQRAALTASERVLGRAHPQTAEILRGMSEAERRLGQTVAARDHARQALQILTGIFGDADAPLRAARQTLASATPPADSREAEATTAVAQR | failed
5 | MTERGLLIVLSGPSGVGKGTVREAVFKDPETSFDYSISMTTRLPREGEQDGVDYYFRSREVFEQAIKDGKMLEYAEYVGNYYGTPLEYVEEKLAAGVDIFLEIEVQGAMQVRKAMPEGIFIFLTPPDLSELKNRIIGRGTESMEVVEERMETAKKEIEMMASYDYAVVNDVVANAVQKIKGIVETEHLKTERVIHRYKKMLEGLQ | not failed
6 | MFTINTKSQLPIYEQIVQKIKEQVVKGILQEGEKILSIREFASRIGVNPNTVSKAYQELERQEVIVTVKGKGTFIADQTEKNSSPKKLAETKIKLKEIILDLVYLGINVEEIHKLSVEYSQDIIGGDKI | failed
7 | MPFEIGTMPIMSIDPKLLEVLACPQDKGPLKYLEAEQVLVNERLEIAYRIDDGIPVMLVDESIAWPPAEKLEHHHHHH | failed
8 | MNRPAMPFANTVPGFLPFLNDEKGLRQESQQRYLYTLRPFEAYLNRGGIALSGLEPAHISRFLEERAKTLHKAGMRDTAGALRIFLRYLHREGIVATDLVRSVPRGRIYRQASIPRALEHHHHHH | failed
9 | MRIGHGFDVHKFGENGSGPLIIGGVRIPYEKGLLAHSDGDVALHAATDALLGAAALGDIGKLFPDTDPAFKGADSRGLLREAYRRILAKGYKLGNLDITIIAQAPKMAPHIPQMRVNLAEDLQCHMDDINVKATTTEQLGFTGRGEGIACEAVVLLVNVEQG | not failed
10 | MSRKRTENGSESGPATSHVPVDRFGFLKQEHANSPERFSKSKTTSSTDHDREERKVRKWRKMIGVGGSDWKHYVRRKPNVVRRRIRKGIPDCLRGLVWQLISGSRDLLLMNPGVYEQLVIYETSASELDIIRDISRTFPSHVFFQKRHGPGQRSLYNVLKAYSVYDRDVGYVQGMGFIAGLLLLYMSEEDAFWLLVALLKGAVHAPMEGLYHAGLPLVQQYLFQLESLVKELIPKLGEHFTQEMINPSMYASQWFITVFSYSFPFPLALRIWDVFLSEGVKIVFKVGLALLKYCQDELVSKVTV | failed
11 | MKLPRFGVEEWLNVHENSAIYDIAGVSISSLTLEELFALSGTNPEDFYKKLQGTKLNYGWIEGSPAFKKSVSQLYTGVKPEQILQTNGATGANLLVLYSLIEPGDHVISLYPTYQQLYDIPKSLGAEVDLWQIEEENGWLPDLEKLRQLIRPTTKMICINNANNPTGAVMDRTYLEELVEIASEVGAYILSDEVYRSFSELDVPSIIEVYDKGIAVNSLSKTYSLPGIRIGWVAANHQVTDILRDYRDYTMICAGVFDDLVAQLALAHYQEILERNRHILEENLAILDQWIEEEPLVSYIRPAVVSTSFVKIAVDMPMEDFCLQLLQEHGVLLVPGNRFERDGYVRLGFACEQETLIKGLEKLSQFLRRFDKEN | not failed
12 | MTMETVESQHDGSITASLTESKSAHVQTQTGQNSIPALAQVAAIAETDESAESGGVIDSHKRREILSRRPSYRKILNELSSDVPGVPKIEEERSEEEGTPPSIATMAVPTSIYQTSTGQYIAIAQGGTIQISNPGSDGVQGLQALTMTNSGAPPPGATIVQYAAQSADGTQQFFVPGSQVVVQAATGDMPTYQIRAPTAALPQGVVMAASPGSLHSPQQLAEEATRKRELRLMKNREAAKECRRRKKE | not failed
13 | MIVASSAAYRLHQGDALRLLCGIDSASVDAVITDPPYCSGAMRMADRFKPTKRKYINNGTKHVAPDFDCDFRDHRGFLAWSSQWLSECRRVTRPGGVLLVFTDWRMLPTLTDAVQSAGWAWQGIVVWDKTPACRPQLGRFRSQAEFIVWASCGLMNPKAHPVTPVGVFATGTAPREKRHQVGKPLALMEHLVKIVPPASTVLDPFAGSGTTGVAALRAGHRFIGMELSPWYCDVTKQRLADST | failed
14 | MRKSFNLIWMVFGFLLLIVGCNEDKKSTAFDPNQPVKFTEFMPDSGGIRTKFIVKGSNFGEDKSQVKVYFKDEVGNEREALVLGVKPDVIYAQVPKQAGGESHVRVEIAGKEAELSNAEKTFKYIVTSSVSTVVGKAKEGGNKDGTLGETTFNTPRYVAVDNDDNVFIFDSDGRTRLSSIEQNKTITLLDGMVIDQPLFIDKEKKQLFGPCDNANFGCFLFDANVSWVADKMGQLLANGGWMHSVVLDPVDSTFVIYRQNTGQLWTQPFDKNRRTLNPNKAKRIGTLYNTGSNGLCAYNPVDKYVYCVLHSKSAVYRFKLTRDADGWPALDGDIDEYIPGAGAGFRDGDVQEAQFKEPRGIAIDKEGNLYIADVGNNRIRKVDTKLNVVTTIAGSGAAGYKDGDPLEAQFNQPWGVYLDKNEFLYIADQNNHCIRKLAIE | failed
15 | MKEQSITKGFAILSIASIVAKLLSLIYVPFLTRIVGSVGMGIYGKTYDIFVFVYALTNVGLQTAISKYVSELDAVGNYKDALRAFKISRAFLLVVGTIFTIVLMLSANFIASMSQTPQMVYPIIFLAPTIMITTVLVTYKGYFQGRSQATPIAIATVIEQVANVFLSLLCAYFLIKKSVSLGVAGGTVGSSAGALMAVLYLIYIYNIYGVEKEAKRKQEPGVRRITGKKIARTLFKYGLPITLSTGLQNLGNIIDMLTVSNRLVDAANFSQSDANALYGYFSTRYKILINVPMVFITSLGYMALPAISRAYALKDKKEIKSKINFSMRVTYLLSIPSAFGLALLSENIYRYIFADSNGYKMMVIGAAMIPLTAIVLMQNVILQSVSQFYYVLFTLALSIVVKFTLNMTLVANPDINIYGAVISGMVAFVISLVLNHFRMKKTLKMKISMLKYALKPLLASIYMGIGIILSKYVISLFIDFDKLSLILGIAILLVIIAIGAFMYLHAIIILGGIKKEDIEEISPKLLRVMPRFLRKNIK | failed
